These results are taken from patent US20090274696A1, “METHODS FOR TREATING INFLAMMATION” (WYETH, priority 2008, published 2009).

Assay [1] deals with tracheal smooth muscle (TSM) of mouse tracheal rings. The assay can be described thus: CCh-evoked force generation in cultured tracheal rings. The format is cell-based. The conditions noted are these: for Maximal tensions (%), CCh-evoked force generation: PBS-treated rings 100±8.39; for TSM sensitivity to CCh, LogEC50: Mean ± SE, N=6. As to the method:
(§1) Experimental animals were sacrificed by CO2 asphyxiation. Tracheas were surgically excised and cleaned of adherent connective tissue. Each trachea was sectioned into rings 3-4 mm in length and cultured in DMEM containing 1.0 M HEPES, 1.0 M NaOH, 5% of heat-inactivated FBS (Hy-Clone, Logan, Utah), 0.2M glutamine, 1.0 M CaCl2, 2.5 μg/ml fungizone, 5 μg/mL insulin, 100 U/mL penicillin and 100 μg/mL streptomycin) (DMEM-5%) for 24 hours. For in vitro experiments, the tracheal rings were cultured in DMEM in the absence and presence of either 10 or 100 nM recombinant FIZZ1 (Leinco Technologies, USA) for 24 hours.
(§2) Trachea were supported longitudinally by a plexiglas rod with a stainless steel pin into the base of a double-jacketed, glass organ bath filled with 10 mL of Krebs-Henseleit (K-H) solution (37° C.) of the following composition: 118 mM NaCl; 4.7 mM KCl; 1.2 mM KH2PO4; 11.1 mM Dextrose; 1.2 mM MgSO4; 2.8 mM CaCl2; and 25 mM NaHCO3. The solution was maintained at a pH of 7.40-7.45 and continuously gassed with a mixture of 5% CO2 and […] for the duration of each experiment. […] Initial tensions of TSM were set at approximately 0.5 g and maintained for 1 hour. Agonists were given after a steady state of tension had been reached.
[CCh]-response curves at the doses ranging from 3×10^−8 to 10^−5 M were completed in tracheal rings in absence and presence of either FIZZ1 or LPS (0.1 ng/mL). Concentrations of agonist were increased only when force responses to the previous concentration had stabilized. To examine TSM relaxant responses to isoprenaline (ISO), tracheal rings were first contracted by an addition of 1.0 μM CCh (Sigma, USA). Once the contraction had stabilized, ISO (Sigma, USA) was introduced into each bath at increasing concentrations (3×10^−8-10^−5 M). […] In an additional experiment, the effect of FIZZ1 protein on the CCh-mediated force response was verified using 100 nM heat-inactivated FIZZ1 (natural and recombinant FIZZ1 solution heated at 70° C. for 60 min). Their dose-response curves were obtained as above. Fresh drug solutions such as CCh and ISO were made up on the day of the experiment. Doses of the above agents refer to the final bath concentration.
At the end of each force measurement experiment, tracheas were blotted on a gauze pad and weighted. Results were calculated as milligram of tension per milligram of TSM weight (mg/mg) and expressed as an individual percentage (%) of 10 μM CCh- or 200 μM papaverine-induced tension response in PBS-treated trachea. For the control group, CCh (papaverine)-mediated responses were normalized to the mean value of the maximal responses.

Assay [2] shares this test system. The experiment in a line: ISO-induced relaxation of CCh-contracted tracheal rings. It is filed as cell-based. To be noted: normalized to 200 μM papaverine, PBS 46.29±2.85, n=6. As to the method:
as §1, §2
[CCh]-response curves at the doses ranging from 3×10^−8 to 10^−5 M were completed in tracheal rings in absence and presence of either FIZZ1 or LPS (0.1 ng/mL). Concentrations of agonist were increased only when force responses to the previous concentration had stabilized. To examine TSM relaxant responses to isoprenaline (ISO), tracheal rings were first contracted by an addition of 1.0 μM CCh (Sigma, USA). Once the contraction had stabilized, ISO (Sigma, USA) was introduced into each bath at increasing concentrations (3×10^−8-10^−5 M). […]
At the end of each force measurement experiment, tracheas were blotted on a gauze pad and weighted. Results were calculated as milligram of tension per milligram of TSM weight (mg/mg) and expressed as an individual percentage (%) of 10 μM CCh- or 200 μM papaverine-induced tension response in PBS-treated trachea. […]

Assay [3] concerns airway epithelium of cultured trachea. The experiment in a line: Histological examination of tracheal rings and airway epithelium. It is filed as cell-based, mouse. The conditions noted are these: cultured overnight with FIZZ1 100 nM or LPS 0.1 ng/mL. As to the method:
Histological examination of the structure of the airway and the status of the airway epithelial layer was performed in whole/sectional fresh trachea and as well as trachea cultured overnight with and without 100 nM FIZZ1. To understand the role of airway epithelium in regulating contractility of TSM, we measured the contractile response of tracheal rings after the epithelium was mechanically removed. Briefly, airway epithelial cells were removed by gently rubbing the intraluminal surface with polyethylene tubing (Becton Dickinson & Company, MD USA) connected to a Precision Glide needle (30G1/2) followed by perfusion with 1.0 ml air bubbles and then 1.0 ml K-H solution (re). All of the experimental tracheas were stained with H & E solution (CAT hematoxylin, Edgar Degas Eosin Working Solution, Biocare Medical, Concord, Calif.) and photographed under a light microscope at ×4.0 and ×20 magnification. Tracheal morphometric analysis was performed using a computer-based image analysis system consisting of a Nikon Eclipse E800 microscope (Melville, N.Y. USA) with a SPOT RT Slider camera (Diagnostic Instruments, Inc., Sterling Heights, Mich. USA).

Assay [4] deals with mouse tracheal epithelium cells (MTEC). The experiment in a line: Nitrite in MTEC supernatants, Griess reaction. The format is cell-based. To be noted: PBS, 0.1 ng/mL LPS or 100 nM rFIZZ1; any measured time point; N=3. Here is the method:
MTEC culture was performed by following the protocol of You et al. (“Growth and differentiation of mouse tracheal epithelial cells: selection of a proliferative population,” Am J Physiol Lung Cell Mol Physiol, 2002, 283:L 1315-1321) with minor modification. Briefly, tracheas were incubated in 1.5 mg/mL pronase (Roche Molecular Biochemicals) for 18 h at 4° C. Cells were treated with 0.5 mg/mL crude pancreatic DNase I (Sigma-Aldrich) on ice for 5 min. After incubation in tissue culture plates for 3-4 h in 5% CO2 at 37° C., nonadherent cells were incubated in a plate coated with type I rat tail collagen (BD Biosciences) in modified BEBM (Lonza, Md. USA) containing 10 μg/ml insulin, 5 μg/ml transferrin, 25 ng/ml epidermal growth factor, 5 μg/ml epinephrine and 30 μg/ml bovine pituitary extract, 0.5 nM Hydrocortisone, 25 ng/ml hEGF, 15 nM Triiodothyronine, 0.25 μg/ml Gentamicin/amphotericin-B and 0.01 μM retinoic acid in 5% CO2 at 37° C. […]
Nitric oxide (NO) was examined by measuring an end product, nitrite, using the Griess reaction (Xu et al., “Arginase and autoimmune inflammation in the central nervous system,” Immunology, 2003; 110:141-148). […] Absorbance was read at 540 nm in an automated microplate reader. […]
On the technique in general: The Griess reaction detects nitrite, a stable product of nitric oxide.

B1: rFIZZ1: recombinant FIZZ1 (Leinco Technologies), mouse FIZZ1 protein, resistin-like molecule-α (protein, listed as Mus musculus)
chain: MKTTTCSLLICISLLQLMVPVNTDETIEIIVENKVKELLANIPANYPSTVTKTLSCTSVKTMNRWASCPAGMTATGCACGFACGSWEIQSGDTCNCLCLLV
modifications: (1)..(101) Murine FIZZ1 polypeptide
With B1, the “Maximal tensions (%), CCh-evoked force generation” value in assay [1] (10 nM rFIZZ1, cultured 24 hours, n=6) turned out to be 117.21±7.87%; in assay [1] (100 nM rFIZZ1, cultured 24 hours, n=6), 144.16±15.77%. Further, the “maximal responses (%) of the tracheal rings, CCh-evoked” value in assay [1] (FIG. 4B, 100 nM heat-inactivated or native rFIZZ1, 0.1 ng/mL LPS, PBS 100±4.82, n=6) is on record as 135.67±9.02%. Besides, the “TSM sensitivity to CCh, LogEC50” value in assay [1] (trachea treated with FIZZ1 10 nM) was −0.96 ± 0.05 μM; in assay [1] (trachea treated with FIZZ1 100 nM), −0.99 ± 0.03 μM. Further, the “maximal relaxing force (%), ISO-induced” value in assay [2] (10 nM rFIZZ1 pretreatment) is listed as 46.52±2.80%; in assay [2] (100 nM rFIZZ1 pretreatment), 43.38±0.75%. Further, the “smooth muscle layers, histology” value in assay [3] was “clear and histologically intact”. In addition, the “epithelial layer of tracheal rings, histology” value in assay [3] (vs PBS) was “thinner and some of airway epithelium was denuded”. For the same molecule, in assay [4], the “changes in nitrite concentration in MTEC supernatants” value is reported as “not obvious”.
